Laboratory results reported in patent US5985599.

target: dimeric human IgG1 (myeloma protein, chemically cross-linked) (human) [IgG part: P01857]; assay: direct binding of 125I-dimeric hIgG1 to transfected COS-7 cells, corrected for expression

percent binding compared to wild-type FcγRII (percent of wild-type)	percent decrease of hIgG1-dimer binding [%]	Substance
21.9	80	FcγRII Arg/His131-Ala (receptor)
114		FcγRII Asp133-Ala (receptor)
20.6		FcγRII Leu115-Ala (receptor)
15.9		FcγRII Lys113-Ala (receptor)
8.2	> 90	FcγRII Phe129-Ala (receptor)
53.5		FcγRII Pro114-Ala (receptor)
134		FcγRII Pro134-Ala (receptor)
73.5		FcγRII Val116-Ala (receptor)

target: dimeric human IgG1 (myeloma protein, chemically cross-linked) (human) [IgG part: P01857]; assay: direct binding of 125I-dimeric human IgG1 to transfected COS-7 cells

Ka [M⁻¹]	fold increase of binding over wild-type FcγRII [fold]	Substance
1e+07	10	FcγRII Leu159-Ala (receptor)
1e+07	10	FcγRII Phe160-Ala (receptor)
1e+06		human FcγRII (wild-type FcγRIIa) encoded by HFc3.0 (receptor)

target: mouse beta1 Fc(gamma)R encoded by pFc113 (mouse); assay: sheep anti-mouse Ig rosetting on the cells of Table 5

% rosette formation (background) [%]	Substance
< 5	irrelevant antibody (background control of Table 5)
